{
  "source": "patent US7867500B2",
  "about": "“Cofactor that modulates steroid receptor activities” (The United States of America as represented by the …, priority 2004, dated 2011)",
  "molecules": {"B1": {"name": "6-6CL1: STAMP fragment amino acids 623-834, coactivator interaction domain (CID) (protein)", "chain": "ENTPKENSMKVREWNNKGGHCCKLETQELEPKFNLMQILQDNGNLSKMQARIAFSAYLQHVQIRLMKDSGGQTFSASWAAKEDEQMELVVRFLKRASNNLQHSLRMVLPSRRLALLERRRILAHQLGDFIIVYNKETEQMAEKKSKKKVEEEEEDGVNMENFQEFIRQASEAELEEVLTFYTQKNKSASVFLGTHSKISKNNNNYSDSGAKG"}, "B2": {"name": "STAMP834C: STAMP fragment amino acids 834-1277, receptor interaction domain (RID) (protein)", "chain": "GDHPETIMEEVKIKPPKQQQTTEIHSDKLSRFTTSAEKEAKLVYSNSSSGPTATLQKIPNTHLSSVTTSDLSPGPCHHSSLSQIPSAIPSMPHQPTILLNTVSASASPCLHPGAQNIPSPTGLPRCRSGSHTIGPFSSFQSAAHIYSQKLSRPSSAKAGSCYLNKHHSGIAKTQKEGEDASLYSKRYNQSMVTAELQRLAEKQAARQYSPSSHINLLTQQVTNLNLATGIINRSSASAPPTLRPIISPSGPTWSTQSDPQAPENHSSSPGSRSLQTGGFAWEGEVENNVYSQATGVVPQHKYHPTAGSYQLQFALQQLEQQKLQSRQLLDQSRARHQAIFGSQTLPNSNLWTMNNGAGCRISSATASGQKPTTLPQKVVPPPSSCASLVPKPPPNHEQVLRRATSQKASKGSSAEGQLNGLQSSLNPAASVPITSSTDPAHTKI"}, "B3": {"name": "STAMP: SRC-1 and TIF2 Associated Modulatory Protein, 1277 amino acid human polypeptide, expressed from transfected plasmid (protein)", "chain": "MARDLEETASSSEDEEVISQEDHPCIMWTGGCRRIPVLVFHADAILTKDNNIRVIGERYHLSYKIVRTDSRLVRSILTAHGFHEVHPSSTDYNLMWTGSHLKPFLLRTLSEAQKVNHFPRSYELTRKDRLYKNIIRMQHTHGFKVFHILPQTFLLPAEYAEFCNSYSKDRGPWIVKPVASSRGRGVYLINNPNQISLEENILVSRYINNPLLIDDFKFDVRLYVLVTSYDPLVIYLYEEGLARFATVRYDQGAKNIRNQFMHLTNYSVNKKSGDYVSCDDPEVEDYGNKWSMSAMLRYLKQEGRDTTALMAHVEDLIIKTIISAELAIATACKTFVPHRSSCFELYGFDVLIDSTLKPWLLEVNLSPSLACDAPLDLKIKASMISDMFTVVGFVCQDPAQRASTRPIYPTFESSRRNPFQKPQRCRPLSASDAEMKNLVGSAREKGPGKLGGSVLGLSMEEIKVLRRVKEENDRRGGFIRIFPTSETWEIYGSYLEHKTSMNYMLATRLFQDRMTADGAPELKIESLNSKAKLHAALYERKLLSLEVRKRRRRSSRLRAMRPKYPVITQPAEMNVKTETESEEEEEVALDNEDEEQEASQEESAGFLRENQAKYTPSLTALVENTPKENSMKVREWNNKGGHCCKLETQELEPKFNLMQILQDNGNLSKMQARIAFSAYLQHVQIRLMKDSGGQTFSASWAAKEDEQMELVVRFLKRASNNLQHSLRMVLPSRRLALLERRRILAHQLGDFIIVYNKETEQMAEKKSKKKVEEEEEDGVNMENFQEFIRQASEAELEEVLTFYTQKNKSASVFLGTHSKISKNNNNYSDSGAKGDHPETIMEEVKIKPPKQQQTTEIHSDKLSRFTTSAEKEAKLVYSNSSSGPTATLQKIPNTHLSSVTTSDLSPGPCHHSSLSQIPSAIPSMPHQPTILLNTVSASASPCLHPGAQNIPSPTGLPRCRSGSHTIGPFSSFQSAAHIYSQKLSRPSSAKAGSCYLNKHHSGIAKTQKEGEDASLYSKRYNQSMVTAELQRLAEKQAARQYSPSSHINLLTQQVTNLNLATGIINRSSASAPPTLRPIISPSGPTWSTQSDPQAPENHSSSPGSRSLQTGGFAWEGEVENNVYSQATGVVPQHKYHPTAGSYQLQFALQQLEQQKLQSRQLLDQSRARHQAIFGSQTLPNSNLWTMNNGAGCRISSATASGQKPTTLPQKVVPPPSSCASLVPKPPPNHEQVLRRATSQKASKGSSAEGQLNGLQSSLNPAASVPITSSTDPAHTKI"}},
  "type_in_all_cases": "cell-based",
  "key": {"[1]": {"biological_target": "T1, PCAF (Homo sapiens, UniProt Q92831)", "T1 construct": "expressed in transfected cells; host or cells: CV-1 (the same two-hybrid assay)", "T1 sequence (Q92831 whole entry, species assumed)": "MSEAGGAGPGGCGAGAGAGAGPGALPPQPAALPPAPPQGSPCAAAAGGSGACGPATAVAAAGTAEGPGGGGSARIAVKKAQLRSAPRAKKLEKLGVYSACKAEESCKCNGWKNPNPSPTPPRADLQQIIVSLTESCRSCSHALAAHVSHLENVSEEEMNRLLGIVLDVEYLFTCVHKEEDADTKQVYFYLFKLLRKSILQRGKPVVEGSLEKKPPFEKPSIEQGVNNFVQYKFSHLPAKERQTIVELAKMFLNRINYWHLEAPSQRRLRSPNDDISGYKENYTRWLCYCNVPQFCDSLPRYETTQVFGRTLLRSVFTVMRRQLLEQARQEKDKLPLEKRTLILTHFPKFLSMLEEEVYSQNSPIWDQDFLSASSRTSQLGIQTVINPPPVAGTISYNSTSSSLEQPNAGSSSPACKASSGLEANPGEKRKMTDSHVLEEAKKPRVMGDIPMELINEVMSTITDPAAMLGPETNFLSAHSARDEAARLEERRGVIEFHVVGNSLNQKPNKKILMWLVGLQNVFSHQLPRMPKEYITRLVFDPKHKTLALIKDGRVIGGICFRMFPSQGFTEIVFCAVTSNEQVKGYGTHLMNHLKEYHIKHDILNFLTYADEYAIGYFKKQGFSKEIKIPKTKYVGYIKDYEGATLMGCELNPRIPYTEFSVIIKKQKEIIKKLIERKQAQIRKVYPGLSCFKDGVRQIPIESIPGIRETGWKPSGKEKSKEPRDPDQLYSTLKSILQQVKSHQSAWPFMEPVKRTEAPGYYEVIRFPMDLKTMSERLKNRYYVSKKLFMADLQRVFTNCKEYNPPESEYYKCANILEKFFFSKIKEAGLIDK", "assay": "Mammalian two-hybrid assay with PCAF", "settings": "data not shown", "method": "These assays were conducted as described (He et al., 2002). In particular, the recommended procedure for the Mammalian Matchmaker two-hybrid assay kit (Clontech) was modified slightly by changing from a chloramphenicol acetyltransferase reporter to a Luciferase Reporter pFRLuc (Stratagene), which is under the control of five repeats of the upstream activating sequence for the binding of GAL4."}, "[2]": {"biological_target": "T2, PPARγ2 (Homo sapiens, UniProt P37231)", "T2 construct": "plus VP16 fused to the indicated full length receptors; expressed in transfected cells; host or cells: CV-1", "T2 sequence (P37231 1-505)": "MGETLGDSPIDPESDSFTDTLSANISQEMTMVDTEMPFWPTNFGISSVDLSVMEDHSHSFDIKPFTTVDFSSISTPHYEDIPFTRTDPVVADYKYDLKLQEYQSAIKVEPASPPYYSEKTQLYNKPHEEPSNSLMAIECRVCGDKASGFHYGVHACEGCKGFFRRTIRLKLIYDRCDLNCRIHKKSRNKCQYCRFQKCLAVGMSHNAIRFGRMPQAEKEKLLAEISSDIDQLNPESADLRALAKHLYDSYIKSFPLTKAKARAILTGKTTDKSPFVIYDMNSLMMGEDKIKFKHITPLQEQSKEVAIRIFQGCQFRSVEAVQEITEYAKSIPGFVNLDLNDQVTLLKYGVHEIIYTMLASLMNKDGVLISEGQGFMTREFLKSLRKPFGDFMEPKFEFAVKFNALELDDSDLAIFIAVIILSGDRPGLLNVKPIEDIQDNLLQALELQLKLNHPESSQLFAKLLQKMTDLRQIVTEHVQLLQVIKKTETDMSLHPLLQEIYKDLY", "assay": "Mammalian two-hybrid assay with VP16 full length receptor: PPARγ2", "settings": "1 μM roziglitazone", "method": "FIG. 6C1-3 illustrate the association of STAMP with assorted steroid/nuclear receptors, including glucocorticoid receptors (GRs), progesterone receptors (PRs), androgen receptors (ARs), estrogen receptors (ER α or β), PPARγ2 receptors, thyroid receptor beta (TR), and retinoid (α) receptors (RAR α or RXR α). Triplicate samples of CV-1 cells were transfected (as described for FIG. 6B) with GAL, or GAL fused to TIF2.4 or STAMP834C, plus VP16 fused to the indicated full length receptors and incubated with the appropriate steroid (1 μM Dex, 20 nM R5020, 1 nM R1881, 0.1 μM triiodothyronine, or 1 μM estradiol, roziglitazone, or 9-cis-retinoic acid). The average relative luciferase activities of 2-3 experiments±S.E.M. were then plotted. FIG. 6C1 illustrates the effects of STAMP association upon GR, PR and AR induced expression. FIG. 6C2 illustrates the effects of STAMP association upon ERα, ERβ and PPARγ2 induced expression. FIG. 6C3 illustrates the effects of STAMP association upon TR, RARα and RXRα induced expression.\nThese assays were conducted as described (He et al., 2002). […]"}, "[3]": {"biological_target": "T3, androgen receptor (AR) (Homo sapiens, UniProt P10275)", "T3 construct": "the whole cell actions of TIF2 with full length AR and TRβ; expressed in transfected cells; host or cells: CV-1", "T3 sequence (P10275 1-920)": "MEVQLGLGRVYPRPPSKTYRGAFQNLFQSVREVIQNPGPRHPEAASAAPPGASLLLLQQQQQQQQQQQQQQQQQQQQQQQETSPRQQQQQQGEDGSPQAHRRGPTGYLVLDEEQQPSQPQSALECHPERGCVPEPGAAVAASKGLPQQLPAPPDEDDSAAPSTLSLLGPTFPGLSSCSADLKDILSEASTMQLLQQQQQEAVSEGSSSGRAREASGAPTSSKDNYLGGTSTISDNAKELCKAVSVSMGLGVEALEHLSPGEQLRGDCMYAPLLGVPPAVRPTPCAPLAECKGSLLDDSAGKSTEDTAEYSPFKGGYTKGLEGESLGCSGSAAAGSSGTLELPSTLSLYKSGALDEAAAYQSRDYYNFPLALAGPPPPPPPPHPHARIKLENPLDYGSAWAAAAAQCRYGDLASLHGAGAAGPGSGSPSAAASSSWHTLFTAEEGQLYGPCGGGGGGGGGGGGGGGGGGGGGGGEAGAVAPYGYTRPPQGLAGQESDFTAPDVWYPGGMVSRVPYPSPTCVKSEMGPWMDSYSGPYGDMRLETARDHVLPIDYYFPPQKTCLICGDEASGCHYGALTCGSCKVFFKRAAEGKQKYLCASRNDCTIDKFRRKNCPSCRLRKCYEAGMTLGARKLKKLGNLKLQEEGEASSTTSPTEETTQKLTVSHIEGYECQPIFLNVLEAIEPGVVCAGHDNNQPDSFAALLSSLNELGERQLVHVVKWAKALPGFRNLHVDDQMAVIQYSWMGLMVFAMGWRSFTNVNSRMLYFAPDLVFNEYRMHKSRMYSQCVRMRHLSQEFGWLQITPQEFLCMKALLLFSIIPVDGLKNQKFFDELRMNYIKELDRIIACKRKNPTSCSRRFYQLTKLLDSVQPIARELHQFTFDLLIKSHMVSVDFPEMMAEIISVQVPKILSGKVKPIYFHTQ", "assay": "AR-mediated induction of GREtkLUC reporter in CV-1 cells", "settings": "R1881", "method": "FIG. 6D1-2 illustrate the effects of STAMP and TIF2 on androgen receptor (AR, FIG. 6D1) and thyroid receptor β (TRβ, FIG. 6D2) expression. […] Luciferase activities, normalized to the internal Renilla control values, and the fold changes in EC50 and fold induction were determined and plotted as in FIG. 4B."}},
  "data": [
    {"molecule": "B1", "values": [
      {"measurement": "association with PCAF", "setting": "[1]", "value": "negligible association"}
    ]},
    {"molecule": "B2", "values": [
      {"measurement": "interaction with PPARγ2", "setting": "[2]", "value": "lack of interaction"}
    ]},
    {"molecule": "B3", "values": [
      {"measurement": "left-shift of the dose-response curve of ARs", "setting": "[3]; STAMP added by itself", "value": "not when added by itself"},
      {"measurement": "fold induction by AR", "setting": "[3]; STAMP with TIF2", "value": "no additional effect"},
      {"measurement": "fold induction by AR", "setting": "[3]; STAMP without TIF2", "value": "increases the fold induction"},
      {"measurement": "left-shift of the dose-response curve of ARs", "setting": "[3]; in the presence of TIF2", "value": "augments the left-shift"}
    ]}
  ]
}
